Here are results for six substances from patent US20240069033A1, “METHOD FOR SCREENING FOR CANDIDATE MOLECULE CAPABLE OF FORMING COMPLEX IN CONJUNCTION WITH PLURALITY OF TARGET MOLECULES” (Chugai Seiyaku Kabushiki Kaisha, priority 2020, published 2024).

In test [1] the target is biotinylated GFP1-9. Nature of the test: mRNA display pull-down: 0.42 µM Display molecule with 1 µM biotinylated GFP1-9, streptavidin beads, TEV elution, qPCR. A general note: In qPCR the cycle at which signal appears reflects the starting amount.
Test [2] has as its target biotinylated GFP1-9. As to the kind of experiment: mRNA display pull-down with biotinylated GFP1-9, qPCR; corrected with the display efficiency.
In test [3] the target is biotinylated GFP1-9. Nature of the test: cell-based or functional assay.
The next test addresses GFP10-Link12-FRB-His×6. Nature of the test: cell-based or functional assay.
Test [4] deals with anti-ubiquitin antibody (Mouse IgG1 monoclonal antibody; clone name FK2). Nature of the test: mRNA display pull-down on anti-ubiquitin antibody (FK2) magnetic beads, qPCR; 1:1 mixture of the two display molecules.
The target is the same in test [5]. As to the kind of experiment: mRNA display pull-down on anti-ubiquitin antibody (FK2) magnetic beads, qPCR; 1:1 mixture; corrected with the display efficiency.
For test [6] the target is unchanged. Nature of the test: mRNA display pull-down on anti-ubiquitin antibody (FK2) magnetic beads, heat elution, qPCR.
Test [7] has the same target. As to the kind of experiment: mRNA display pull-down on anti-ubiquitin antibody (FK2) magnetic beads, qPCR; corrected with the display efficiency.
Test [8] has the same target. As to the kind of experiment: mRNA display pull-down on anti-ubiquitin antibody (FK2) magnetic beads, qPCR.

Sequence of His×6-FKBP12-Link12-GFP11 (chain): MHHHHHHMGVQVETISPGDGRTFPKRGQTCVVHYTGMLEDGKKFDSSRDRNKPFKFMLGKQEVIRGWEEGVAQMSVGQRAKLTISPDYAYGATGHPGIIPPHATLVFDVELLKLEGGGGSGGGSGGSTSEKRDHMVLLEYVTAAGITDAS
Sequence of GFP10-11 fusion peptide (peptide; modification not given; biotinylated at the Avi tag (co-expression with BirA)) (chain, as listed by the source): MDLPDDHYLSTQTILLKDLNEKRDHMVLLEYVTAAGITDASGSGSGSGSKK
Sequence of GFP10-Link12-FRB-His×6 (chain, as listed by the source limits assumed): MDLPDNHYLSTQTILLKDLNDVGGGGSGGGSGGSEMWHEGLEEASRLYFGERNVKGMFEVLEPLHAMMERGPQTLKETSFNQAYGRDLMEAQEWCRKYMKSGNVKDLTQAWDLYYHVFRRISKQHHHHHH
Sequence of GFP10-Link12-FRB-His×6 (chain): as the sequence (chain, as listed by the source limits assumed) above

With “GFP10-11 fusion peptide (peptide; modification not given; biotinylated at the Avi tag (co-expression with BirA))”, in the test with biotinylated GFP1-9 [1], the Apparent recovery rate (%) is 13.1% and the Recovered nucleic acid amount (molecules) came to 1.31e+11 molecules. The same substance returned a Recovery rate (%) with biotinylated GFP1-9 [2] of 23.4%.
In the test with biotinylated GFP1-9 [3], GFP10-Link12-FRB-His×6 had a Recovered nucleic acid amount (molecules) of compound nk06 by pull-down with biotinylated GFP1-9; Condition 4, FKBP12-GFP11 absent of 2.24e+08 molecules and a Recovery rate (%) of compound nk06 by pull-down with biotinylated GFP1-9; Condition 4, FKBP12-GFP11 absent of 0.055%.
In the test with biotinylated GFP1-9 [3], His×6-FKBP12-Link12-GFP11 showed a Recovered nucleic acid amount (molecules) of compound nk06 by pull-down with biotinylated GFP1-9; Condition 3, GFP10-FRB absent of 8.21e+08 molecules and a Recovery rate (%) of compound nk06 by pull-down with biotinylated GFP1-9; Condition 3, GFP10-FRB absent of 0.202%. In the test with GFP10-Link12-FRB-His×6, this substance yielded a Recovered nucleic acid amount (molecules) of compound nk06 (rapamycin-nucleic acid) by pull-down with biotinylated GFP1-9; Condition 1, all three proteins at 1 µM of 3.5e+10 molecules and a Recovery rate (%) of compound nk06 (rapamycin-nucleic acid) by pull-down with biotinylated GFP1-9; Condition 1, all three proteins at 1 µM of 8.62%.
On to splitUb (N) + splitUb (C), for which, in [4], the Apparent recovery rate (%) turned out to be 0.194% and the Recovered nucleic acid amount (molecules) was found to be 7.16e+09 molecules. Further, the Recovery rate (%) in test [5] was found to be 0.344%.
Take splitUb(C) (peptide): in test [6], the Apparent recovery rate (%) is 0.571% and the Recovered nucleic acid amount (molecules) was determined as 1.16e+10 molecules. For the same substance, the Recovery rate (%) in [7] turned out to be 1.01%.
In turn, splitUb(N-C) had a fold higher recovery rate than the other controls in [8] of over 16 times. Also, in test [6], the Apparent recovery rate (%) was determined as 12.3% and the Recovered nucleic acid amount (molecules) came to 6.69e+10 molecules. Moreover, the Recovery rate (%) in test [7] was determined as 16.1%.
